Measurements: article PMC4686834, “Autocrine selection of a GLP-1R G-protein biased agonist with potent antidiabetic effects” (Nature Communications, 2015)

Legend:
[1] = biological target: mouse GLP-1 receptor (HEK293 cell line) (mouse) (UniProt O35659)
[2] = biological target: human GLP-1 receptor (stable CHO cell line) (human) (UniProt P43220)
human GLP-1 receptor (stable CHO cell line) (human), sequence (P43220 24-463): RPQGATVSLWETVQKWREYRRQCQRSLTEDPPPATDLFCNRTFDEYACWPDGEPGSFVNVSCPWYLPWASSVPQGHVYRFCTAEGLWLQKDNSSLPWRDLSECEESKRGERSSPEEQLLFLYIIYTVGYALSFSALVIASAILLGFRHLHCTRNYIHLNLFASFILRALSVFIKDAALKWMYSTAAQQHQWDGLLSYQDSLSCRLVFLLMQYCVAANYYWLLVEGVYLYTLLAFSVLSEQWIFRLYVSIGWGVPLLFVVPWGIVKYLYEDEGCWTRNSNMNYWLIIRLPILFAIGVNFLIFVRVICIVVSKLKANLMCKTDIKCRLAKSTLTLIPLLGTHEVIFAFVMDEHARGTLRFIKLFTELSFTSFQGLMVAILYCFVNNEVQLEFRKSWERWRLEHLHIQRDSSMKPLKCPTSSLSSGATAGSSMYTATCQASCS

mouse GLP-1 receptor (HEK293 cell line) (mouse), sequence (O35659 22-463): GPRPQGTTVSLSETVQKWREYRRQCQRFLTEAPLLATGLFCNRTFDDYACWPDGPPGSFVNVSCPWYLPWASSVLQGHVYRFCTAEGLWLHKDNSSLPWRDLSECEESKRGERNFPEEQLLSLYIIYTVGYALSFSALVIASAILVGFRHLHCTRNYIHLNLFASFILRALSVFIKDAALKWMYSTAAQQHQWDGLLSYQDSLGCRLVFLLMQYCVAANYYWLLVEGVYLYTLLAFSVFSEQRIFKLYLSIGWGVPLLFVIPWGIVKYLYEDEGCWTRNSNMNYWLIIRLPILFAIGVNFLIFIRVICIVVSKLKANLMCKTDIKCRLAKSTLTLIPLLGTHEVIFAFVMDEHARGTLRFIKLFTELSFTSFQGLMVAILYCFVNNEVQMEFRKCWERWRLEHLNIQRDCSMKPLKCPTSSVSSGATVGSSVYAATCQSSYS

## Exendin-4 (from UniProt P26349 48-87) (peptide)
[1]
  EC50, cAMP production (Gαs; HTRF) in HEK293 cells expressing mouse GLP-1R: 0.322 nM
[2]
  EC50, cAMP production (Gαs; HTRF) in CHO cells expressing human GLP-1R: 0.091 nM
